Test results: publication PMC6081406 (Nature Communications, 2018)
Where two headings read alike, the source gives them in different places.

Experiments:
[1] = target: GABAAR α2 subunit large cytoplasmic loop (AA 335-419) (UniProt P23576)
[2] = target: GABAAR α1 subunit large cytoplasmic loop (AA 334-420) (UniProt P62813)
[3] = target: GABAAR α3 subunit large cytoplasmic loop (AA 392-406) (UniProt P20236)
[4] = target: GABAAR-α2 large cytoplasmic loop (AA 335-419); assay: ITC; CB-SH3 titrated against the GABAAR α-subunit loops and truncated α2 constructs; purified proteins
[5] = target: GABAAR-α2 loop truncation α2-351St (AA 307-350); assay: as above
[6] = target: T1, GABAAR α2 subunit large cytoplasmic loop (AA 335-419) (UniProt P23576 335-419); assay: ITC; CB-SH3 titrated against the receptor loops and truncated constructs; conditions: both partners purified
T1 construct: GABAA receptor α2 subunit, large cytoplasmic loop, AA 335-419; also called α2L; GABAAR-α2L

[7] = target: GABAAR α1 subunit large cytoplasmic loop (AA 334-420) (UniProt P62813); assay: as above
[8] = target: GABAAR α3 subunit large cytoplasmic loop (AA 392-406) (UniProt P20236); assay: as above
[9] = target: large cytoplasmic loop of the GlyR β subunit (AA 378-425); assay: as above
[10] = target: GABAAR-α2 loop truncation α2-335St (AA 307-334); assay: ITC; CB-SH3 titrated against the GABAAR α-subunit loops and truncated α2 constructs; purified proteins
[11] = target: GABAAR-α2 loop fragment α2-min3; assay: as above
[12] = target: T2, GABAA receptor alpha2 large intracellular loop (Mus musculus, UniProt P26048); assay: ITC
T2 chain: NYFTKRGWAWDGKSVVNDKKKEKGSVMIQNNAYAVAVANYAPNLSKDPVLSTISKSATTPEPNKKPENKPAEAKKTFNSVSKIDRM

[13] = target: T3, SH3 domain of collybistin (CB-SH3) (mouse (murine), UniProt Q3UTH8 4-72); assay: ITC; CB-SH3 titrated against the GABAAR α-subunit loops and truncated α2 constructs; purified proteins; conditions: both partners purified
T3 construct: collybistin (CB1, ARHGEF9), murine, residues 4-72, encompassing the complete SH3 domain (residues 8-67); said to be identical to the SH3 domain of the human CB isoform hPEM-2; pGEX vector construct provided by T. Soykan (Brose lab); also called collybistin SH3; source: E. coli, purified (GST tag, in-situ thrombin cleavage, Superdex 200 SEC); not shown: GST, N-terminal, cleaved
T3 sequence (looked up): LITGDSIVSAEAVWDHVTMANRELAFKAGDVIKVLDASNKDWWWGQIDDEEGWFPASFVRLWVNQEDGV

Molecule “E domain of gephyrin (GephE, AA 318-736) (domain or fragment)” has a Kd [1] greater than 500 µM, a Kd [2] of 17 µM and a Kd [3] of 5 µM.

B1: SH3 domain of collybistin (CB-SH3) (domain or fragment, murine, UniProt Q3UTH8 4-72, looked up)
chain: LITGDSIVSAEAVWDHVTMANRELAFKAGDVIKVLDASNKDWWWGQIDDEEGWFPASFVRLWVNQEDGV
notes: collybistin CB1, murine, residues 4-72, encompassing the complete SH3 domain (residues 8-67); pGEX construct provided by T. Soykan (Brose lab); source: E. coli, purified (GST tag, in-situ thrombin cleavage, Superdex 200 SEC); not shown: GST, N-terminal, cleaved
For B1, the stoichiometry N [4] was 0.62, the Kd [5] was 7 µM and the Kd [6] was 1.3 µM. The Kd [7] was 500 µM, the Kd [8] was greater than 500 µM and the Kd [9] was greater than 500 µM.

B2: SH3 domain of collybistin (CB-SH3), Q3UTH8 4-72 (domain or fragment)
chain: LITGDSIVSAEAVWDHVTMANRELAFKAGDVIKVLDASNKDWWWGQIDDEEGWFPASFVRLWVNQEDGV
B2 was tested, and the Kd [10] was greater than 500 µM and the Kd [11] was greater than 500 µM.

B3: Collybistin SH3 (protein)
chain: ITGDSIVSAEAVWDHVTMANRGVAFKAGDVIKVLDASNKDWWWGQIDDEEGWFPASFVRLWVNQED
B3 showed a Kd [12] of 1 µM.

B4: GABAAR-α2 loop fragment α2-min1 (peptide)
chain: QNNAYAVAVANYAPN
notes: GABA-A receptor subunit alpha-2, stretch of the large cytoplasmic loop
B4 gave a Kd [13] greater than 500 µM.

B5: GABAAR-α2 loop fragment α2-min2 (peptide)
chain: KGSVMIQNNAYAVAVANYAPNL
notes: as for B4
With B5 the Kd [13] was greater than 500 µM.
